Results: patent publication US20250041437A1, “HUMANIZED MUC1 ANTIBODY AND ANTIBODY DRUG CONJUGATE” (Sun Pharma Advanced Research Company Limited, priority 2023, published 2025)

Key:
[1] = target: human MUC1 on cells (DA3-TM transfectants and human cancer cell lines SKOV3, COLO357, HT29 and others) (human) (UniProt P15941); experiment: flow cytometry on DA3-TM cells; table row 2 of 5 from the top, concentration not printed in this figure
[2] = target: human MUC1 on cells (DA3-TM transfectants and human cancer cell lines SKOV3, COLO357, HT29 and others) (human) (UniProt P15941); experiment: flow cytometry on DA3-TM cells; table row 3 of 5 from the top, concentration not printed in this figure
[3] = target: human MUC1 on cells (DA3-TM transfectants and human cancer cell lines SKOV3, COLO357, HT29 and others) (human) (UniProt P15941); experiment: flow cytometry on DA3-TM cells; table row 4 of 5 from the top, concentration not printed in this figure
[4] = target: human MUC1 on cells (DA3-TM transfectants and human cancer cell lines SKOV3, COLO357, HT29 and others) (human) (UniProt P15941); experiment: flow cytometry on DA3-TM cells; table row 5 of 5 from the top, concentration not printed in this figure

Sequence of human MUC1 on cells (DA3-TM transfectants and human cancer cell lines SKOV3, COLO357, HT29 and others) (human) (P15941 24-1255 limits assumed): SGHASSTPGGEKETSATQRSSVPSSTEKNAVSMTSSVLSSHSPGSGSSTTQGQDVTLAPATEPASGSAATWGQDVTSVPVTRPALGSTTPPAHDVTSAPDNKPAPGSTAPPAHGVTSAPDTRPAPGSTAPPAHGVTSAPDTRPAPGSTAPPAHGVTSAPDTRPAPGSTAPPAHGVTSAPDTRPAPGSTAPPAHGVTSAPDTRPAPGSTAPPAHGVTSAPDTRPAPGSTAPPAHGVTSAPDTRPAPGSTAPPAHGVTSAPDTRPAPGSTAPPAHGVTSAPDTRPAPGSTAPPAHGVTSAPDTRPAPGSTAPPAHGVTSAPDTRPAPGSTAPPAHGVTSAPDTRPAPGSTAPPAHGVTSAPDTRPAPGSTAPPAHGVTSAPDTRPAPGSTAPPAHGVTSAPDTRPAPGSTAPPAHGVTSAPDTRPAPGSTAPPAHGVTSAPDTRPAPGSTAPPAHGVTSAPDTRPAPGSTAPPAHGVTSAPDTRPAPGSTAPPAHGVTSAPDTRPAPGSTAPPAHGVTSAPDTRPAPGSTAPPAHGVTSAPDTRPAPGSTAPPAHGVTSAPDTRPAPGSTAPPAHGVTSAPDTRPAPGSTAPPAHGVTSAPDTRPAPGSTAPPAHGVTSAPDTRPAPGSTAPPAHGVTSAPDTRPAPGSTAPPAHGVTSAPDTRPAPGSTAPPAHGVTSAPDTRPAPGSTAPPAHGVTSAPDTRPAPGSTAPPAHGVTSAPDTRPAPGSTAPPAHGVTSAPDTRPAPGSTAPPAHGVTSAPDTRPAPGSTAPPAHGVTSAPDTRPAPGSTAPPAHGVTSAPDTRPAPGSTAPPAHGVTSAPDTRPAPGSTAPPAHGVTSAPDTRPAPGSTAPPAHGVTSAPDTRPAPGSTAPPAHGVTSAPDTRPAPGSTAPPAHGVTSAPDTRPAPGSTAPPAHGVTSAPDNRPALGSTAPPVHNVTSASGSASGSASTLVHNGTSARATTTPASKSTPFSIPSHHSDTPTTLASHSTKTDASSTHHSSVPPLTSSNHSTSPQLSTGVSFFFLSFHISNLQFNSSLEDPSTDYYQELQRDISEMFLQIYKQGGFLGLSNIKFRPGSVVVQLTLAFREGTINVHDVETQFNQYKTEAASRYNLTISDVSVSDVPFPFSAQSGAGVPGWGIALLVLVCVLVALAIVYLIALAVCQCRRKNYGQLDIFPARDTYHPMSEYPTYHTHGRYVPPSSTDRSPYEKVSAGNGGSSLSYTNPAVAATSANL

B1: Hu-5F3 (HM1 LM2) (antibody, V domains shown)
VH: EIQLVQSGAEVKKPGSSVKVSCKVTGHSITRGSSWHWMRQAPGQGLEWIGYIHYGGGTSYNPSLKSRATLTVDTSTNTAYMELSSLRSEDTAFYFCARYSYDITYRWFFDVWGQGTLVTVSS
VL: DIQMTQSPSTLSASVGDRVTITCRASQNIGTSIHWYQQKPGKAPKLLIKRASESISGVPSRFSGSGSGTEFTLTISSLQPDDFATYYCQQNNNWPLTFGQGTKVEVK
Geometric Mean : FL6-A [1]: 114
Geometric Mean : FL6-A [2]: 71.4
Geometric Mean : FL6-A [3]: 45.3
Geometric Mean : FL6-A [4]: 35.9
